Measured values as given in the supplement of paper PMC9732359.
± gives the uncertainty stated by the source.

assay: protein stability index of a GFP-peptide fusion (yeast GPS) (PSI 1-4); higher = more stable; sorted into four equal gates, so the index is relative within each strain; conditions: ubr1∆
Method in brief: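 Yeast carrying a pooled library were grown to mid-log phase in leucine-free medium. Each library plasmid expresses Cherry and has a tiled 17-residue yeast protein peptide fused downstream of GFP. Cells were sorted into four equal gates by GFP/Cherry ratio, and plasmids from each gate were PCR-amplified, Illumina-sequenced and assigned to strains by barcode. Summing, across gates, the read frequency times the gate number gave each peptide's protein stability index.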

Sequence | protein stability index
ENELVITSIPKPLTENC [RMP1] | 3.1 ± 0.07
ENENILIKAKNFLVFQG [SMC1] | 1.17 ± 0.11
ENIIQRLQAANSMEYTG [CDC53] | 1.9 ± 0.095
ENIPVALCKNRKCQFRT [POP1] | 1.96 ± 0.035
ENITNKVTEKVLTQLTA [CSI1] | 2.69 ± 0.041
ENLEESFLSKHALYLAP [SSN2] | 3.28 ± 0.05
ENSANSTVASALDTNGT [SIR4] | 2.86 ± 0.069
ENVEKKEAALKTMIKTI [SMC2] | 2.14 ± 0.039
EPAEANEENDLDVDPAK [RPB2] | 3.41 ± 0.17
EPDRDENWIHVSCLSFM [LIN1] | 3.11 ± 0.036
EPFFLVTKITDMLLHKY [SRB8] | 2.72 ± 0.083
EPIKVNVRVGQAVETVG [RPN1] | 2.44 ± 0.15
EPLAPGNDNLIKAPTVA [YLR335W/NUP2] | 2.88 ± 0.059
EPLTEIKNVIVSNRVAA [RPP0] | 1.95 ± 0.07
EPMKQLNATKISPSAPS [YAR002W/NUP60] | 2.77 ± 0.078
EPSDLRSWTLTSEMKVL [YGL100W/SEH1] | 3.37 ± 0.045
EPYVAYGYPSYSTIRQL [RPL7A] | 2.23 ± 0.036
EQDILDLIAEQVVTDYN [SSN2] | 2.47 ± 0.14
EQDPYSNASQMGNTGSG [RPB3] | 2.95 ± 0.1
EQGIELEHIDSKSEFAH [FAS2] | 2.15 ± 0.16
EQRHLKRELKRAQEEVK [RPT3] | 3.17 ± 0.078
ERAELETDEYISYTSHI [RPN1] | 3.19 ± 0.05
ERNEQEREIMNDHSKSA [SWI3] | 3.48 ± 0.084
ERPPLLPILPIQRLRLL [YOR098C/NUP1] | 1.9 ± 0.11
ERQQENLLIQRLNFNQN [SWI3] | 3.19 ± 0.055
ERRMQVTAEDFKQAKER [RPT2] | 3.56 ± 0.12
ERSLAVKYINFGKTVKD [RPC31] | 2.88 ± 0.058

Sequence | protein stability index
ERSLRQKYNLLHVLPTL [SNM1] | 1.35 ± 0.17
ERTKLQEHTIFTQLKKN [SNU114] | 1.58 ± 0.039
ESAAVYNGRGARERKTA [SNF2] | 2.78 ± 0.06
ESELSLLEETQAKLKKN [SMC4] | 3.11 ± 0.14
ESFESYHNLTTHNSYEK [RPN6] | 3.28 ± 0.044
ESGEDEAEFSLRELSCC [RRP46] | 3.16 ± 0.066
ESGLRPVSLLNSQLVGK [PCI8] | 3.09 ± 0.27
ESGLVNADLDVKDELMF [RPO21] | 3.3 ± 0.038
ESISQTPISNEQTEGEP [SRP68] | 3.19 ± 0.065
ESLQKRELLKSQVEDFT [SIR3] | 3.27 ± 0.043
ESLSEEHASLLVRDSKP [MED8] | 2.59 ± 0.099
ESNNKKYPIFTGESWVK [YDL088C/ASM4] | 2.74 ± 0.06
ETDGKHGKRRSQVVETH [YMR129W/POM152] | 3.11 ± 0.048
ETEKFALERNWPIVNSK [RPN12] | 3.11 ± 0.086
ETHPDNSNKQAVAILAD [BRR2] | 2.98 ± 0.038
ETIQADLNHVTEELQTQ [SMC2] | 3.01 ± 0.1
ETLGDILKRDFELVSDL [ECM29] | 3.08 ± 0.17
ETLNDTIERSLIEEEVE [YCS4] | 3.33 ± 0.097
ETPKSNNSLSYHSGRLL [ITC1] | 3.32 ± 0.078
ETPNQDATYDSALELVG [RPN6] | 2.6 ± 0.1
ETQPGCNEEQTLEAKIG [RPO31] | 3.24 ± 0.053
ETSSFGSMFSGDNTSDV [RRI1] | 2.66 ± 0.15
ETTTQFKATHILDFGPG [FAS1] | 2.25 ± 0.054
ETYVASYVVPRLYLKDQ [ECM29] | 2.32 ± 0.054
EVCAKMPNIELYLKVIP [SSN2] | 2.26 ± 0.039
EVDSASDFISKLEYPHT [RPN3] | 3.02 ± 0.079
EVEEDDEDDDQPMISPD [SWI3] | 3.15 ± 0.06

Sequence | protein stability index
EVGMKVQSGQIYINKSV [RET1] | 3.08 ± 0.069
EVLCSRIIEKSVRRSGA [RRP45] | 2.94 ± 0.1
EVLLAGFGRKGKAKGDI [RPS23A] | 3.22 ± 0.071
EVRDATLNNIFRFDSIQ [GRR1] | 3.24 ± 0.24
EVRILPRQRMEEVVSND [PRP8] | 2.57 ± 0.084
EVRQETQPKAEATQDDD [NUT1] | 3.16 ± 0.074
EVSMNSIFAMGLCGAGT [RPN1] | 1.23 ± 0.052
EVSQFLIENGASVRIKD [NAS6] | 2.71 ± 0.12
EVVSEAINIMNRSNDAL [FAS2] | 3.31 ± 0.16
EVWSVSWNLTGTILSSA [YGL100W/SEH1] | 1.63 ± 0.061
EVYRTSLNTKKNEKLIL [SMC3] | 2.35 ± 0.1
EVYTLVDSQGLPYNWDA [ARP7] | 3.22 ± 0.15
EWDMLNVEEEQIVPYIE [BRR2] | 3.45 ± 0.29
EWKSNHKKKRSNAAGAD [SRB8] | 1.83 ± 0.054
EYEEWQKSVSLLSSESN [YDL116W/NUP84] | 2.73 ± 0.054
FCGKKTVKRGAAGIWTC [RPL43A] | 1.92 ± 0.059
FDDACNQIWNIALNLAS [SSN2] | 2.62 ± 0.14
FDDIFQVSEVDPGRYNK [RPB8] | 2.95 ± 0.097
FDKDLERDTFSDFTFPE [DIS3] | 1.32 ± 0.15
FDKKSFFNGKALNNAIP [PRP8] | 1.92 ± 0.052
FDNKSTSEEQEALLRSL [SNF2] | 2.73 ± 0.2
FEGNVATKAINGCIFTL [PRP8] | 2.71 ± 0.05
FEIDGDVIHFEDSSILQ [PCI8] | 3.46 ± 0.044
FELIELVTPKSFLFDVL [NUT1] | 1.06 ± 0.12
FERIMILDPQVTRFTTW [YJL039C/NUP192] | 1.23 ± 0.062
FERLVPRGTAKLIIHRK [SMC3] | 2.86 ± 0.03
FESSSSLPFLLRHMPLA [SSN2] | 1.48 ± 0.11

Sequence | protein stability index
FETETEVTFKNANIFSS [FAS1] | 3.35 ± 0.037
FEWDISNSDNCPEEFAE [SNF5] | 3.29 ± 0.072
FEYEGVQDIIGNGKLSE [RPN1] | 2.74 ± 0.1
FFEMLISKSLTFSQESG [RRI2] | 1.66 ± 0.13
FFLRDTLLWNKNDKLIK [SNF5] | 2.42 ± 0.027
FFLSIYFFYASRPEYSC [YJL039C/NUP192] | 1.38 ± 0.057
FFTIDHFIQKLHTARKI [SIR2] | 1.37 ± 0.12
FFYNISSIHWNNWFSLP [SIN4] | 2.13 ± 0.036
FGHIDLAKPVFHVGFIA [RPO21] | 2.63 ± 0.06
FGIYILTQGINGKEVPL [MED1] | 1.38 ± 0.066
FGKTGDQKETKKGESEK [YOR098C/NUP1] | 3.35 ± 0.061
FHIACSVGNLEVVKSLY [NAS6] | 2.67 ± 0.065
FHIGYFKATIQILQGIC [RPO31] | 1.54 ± 0.036
FIEVRNFLGDKKIRNVP [RPL9A] | 3.16 ± 0.12
FILTIATAFLGYCCVYG [COB] | 1.36 ± 0.072
FISELCSIEPIAAKLIN [YML103C/NUP188] | 1.35 ± 0.045
FITKHLPLLILENSSRS [NUT1] | 1.14 ± 0.032
FKATIQILQGICKNCSA [RPO31] | 1.79 ± 0.046
FKCQEKDKGVYVVTSDE [SIR2] | 3.34 ± 0.054
FKDVEHISFNFSMLQMA [BRR2] | 2.03 ± 0.049
FKGLETPLKARQREMAE [YLR018C/POM34] | 3.41 ± 0.069
FKKQMQTIMKMGPLSNI [SRP54] | 2.92 ± 0.072
FKLFNKYRPETAAEKKE [RPL8A] | 2.74 ± 0.071
FKRDLLREKEDKKNSSD [YJL039C/NUP192] | 3 ± 0.14
